Measured values published in PMC9896449 (Nature Communications, 2023).

Key:
[1] = target: ShAb01 (shark VNAR - human IgG1 Fc chimera) (nurse shark (Ginglymostoma cirratum)); assay: BLI; settings: both partners purified
[2] = target: ShAb02 (shark VNAR - human IgG1 Fc chimera) (nurse shark (Ginglymostoma cirratum)); assay: BLI; settings: both partners purified

B1: SARS-CoV-1 RBD (domain or fragment)
chain: not shown
binding result [1]: binds
binding result [2]: no binding
